Consider 3 molecules from US20090010942A1, “NOVEL PRIMATE CHITINASES AND USES THEREFOR” (WYETH, priority 2007, published 2009).

Series [1] in a line: relative specific activity of purified chitinases. Format: biochemical. The settings on record: 5 μM chitobiose-4MU, 0.1 M citrate phosphate. How it is done: As shown in FIGS. 15A-15D, further characterization of the purified mNC was performed by measuring the relative specific activity, pH profiling, and inhibition by an art-recognized chitinase inhibitor, methylallosamidin. Briefly, various concentrations of mNC, ranging from 0.156 nM to 5 nM, or hAMCase, ranging from 1.56 nM to 50 nM, were incubated with 5 μM chitobiose-4MU substrate in 0.1 M citrate phosphate, 0.0005% Brij35 buffer. The relative specific activity of each enzyme was then determined by measuring the initial rate of enzyme activity versus the enzyme concentration.

Series [2] in a line: apparent Km of purified chitinases with increasing chitobiose-4MU. Format: biochemical. The settings on record: for Km: purified 6-histidine tagged enzyme. An excerpt: hAMCase, engineered with a C-terminal 6-histidine tag, was purified to a single band on SDS-PAGE from a stable CHO cell line transfected with cDNA encoding this hAMCase construct by nickel chromatography. Similarly, mNC, engineered with a C-terminal 6-histidine tag, was purified to a single band on an SDS-PAGE from COS cells transfected with cDNA encoding this mNC construct by nickel chromatography. The enzymatic activity of recombinant hAMCase to mNC was compared, as follows.

A short description of series [3]: pH profile of purified chitinases. Format: biochemical. The settings on record: for activity at lower pH values: pH 2.0 and 3.5; for pH of maximal activity: pH 2 to pH 8, 5 μM chitobiose-4MU; for slope of the initial rate at the various enzyme concentrations at maximal activity: pH 5.0, 5 μM chitobiose-4MU. Here is the method:
Analysis of the pH profiles of hAMCase and mNC were performed by incubating various concentrations of purified hAMCase (ranging from 0.05 nM to 50 nM) or mNC (ranging from 0.018 nM to 5 nM) with 5 μM chitobiose-4MU substrate in 0.1 M citrate phosphate buffer containing 0.005% Brij35 prepared at pH 2 to pH 8. The slope of the initial enzyme rate for each of the enzyme concentrations was then compared at each pH. […] The slope of the initial rate at the various enzyme concentrations measured for this maximal activity was 13.1 for mNC and 0.45 for hAMCase. This maximal value was set to 100% for each enzyme and the relative activity, for comparison of the activity at different pH values.

The nature of series [4]: chitin RBV assay (chitin hydrolysis). Format: biochemical. The conditions noted are these: 37° C., 24 hours. Here is the method: Chitin RBV assay. Carboxymethyl-substituted chitin labeled covalently with Remazol Brilliant Violet (CM-Chitin-RBV) (Loewe Biochemica, Sauerlach, Germany) was used to measure chitinolytic activity (Wirth S J, Wolf G A, (1992) Soil Biol Biochem v24 p511-519). A solution of 2 mg/ml CM-chitin-RBV (50 μL) was added to hAMCase (AMCase) or mNC (cyno chitintase) in a total volume of 200 μL of buffer (0.2 M citrate phosphate buffer pH 5.0) in 96-well v-bottom plates (Costar Cat. No. 3894 Acton, Mass.). The plates were sealed with low evaporation lids and incubated at 37° C. for 24 hours. The reaction was terminated by the addition of 1 N HCl, causing precipitation of the non-degraded high-polymeric substrate. The plates were cooled on ice for 10 min. and centrifuged (1400 g, 10 min). The supernatants (100 μL) were transferred to 96-well plates (Costar cat. No. 3690) and measured at […] (Molecular devices).
Chitin hydrolysis. We employed the chitin RBV assay, a soluble, dye-labelled and acid-precipitable assay for endo-chitinases to determine if mNC and hAMCase hydrolyze chitin (Wirth S J, Wolf G A (1992) Soil Biol Biochem 24, 511-519). […] The released amount of soluble chitin oligomers was dose-dependent on enzyme concentration (FIG. 16).

The nature of series [5]: chitinase kcat and Km determination, hydrolysis of chitobiose-4MU. In kind it is biochemical. The settings on record: for chitobioside-4MU substrate concentration showing substrate inhibition / apparent transglycosylation: hAMCase 1 nM, mNC 0.25 nM. Here is the method: Km and Kcat values for hAMCase and mNC. To better understand the mechanism for the increased specific activity of mNC compared to hAMCase, we measured the km and kcat for each enzyme. The progress curves of hAMCase (1 nM) hydrolysis reactions for 4MU product formation were linear during the first 10 min. for chitobioside-4MU substrate concentrations between 0 to 75 μM (data not shown). The rate of product formation was slower at the highest substrate concentration tested, 150 μM, compared to 75 μM, reflecting substrate inhibition due to transglycosylation, consistent with a previous report (Chou et al. (2006) Biochemistry 45, 4444-4454). We confirmed the high substrate concentration was not due to inner filter effect. In separate control experiments, the 4MU fluorescent signal was not quenched by chitobiose-4MU up to 600 μM.
The initial rates within the first 10 min. of hAMCase (1 nM) or mNC (0.25 nM) were plotted against the concentration of chitobiose-4MU that were in the linear range for both enzymes. […] The same Km and Kcat values for each enzyme were obtained from Line-weaver Burke plots of the linear curves.

For series [6], the target named is T1, hAMCase (Homo sapiens, UniProt Q9BZP6).
T1 construct: 6-histidine tag (C); made in house
The experiment in a line: methylallosamidin inhibition of hAMCase, chitobiose-4MU substrate. Format: biochemical. The conditions noted are these: 2 nM hAMCase, 5 μM chitobiose-4MU. How it is done:
(§1) Analysis of hAMCase and mNC inhibition by methylallosamidin was performed by incubating various concentrations of methylallosamidin with 2 nM mNC or 2 nM hAMCase for 10 minutes prior to the addition of 5 μM chitobiose-4MU substrate. Maximal activity was determined by the initial rate of the enzyme activity without the inhibitor methylallosamidin. The percentage of enzyme activity was then calculated and plotted for each concentration of methylallosamidin compared to maximal activity. For the data shown in FIGS. 15C and 15D, the maximal initial rate (RFU/sec) is 1.1 for hAMCase and 21.0 for mNC. […] Conversely, 10 times more methylallosaminidin was required to inhibit mNC than hAMCase.

For series [7], the system named is mNC. The experiment in a line: methylallosamidin inhibition of mNC, chitobiose-4MU substrate. Format: biochemical, cynomolgus monkey. How it is done: as §1
Series [8] can be described thus: chitinase enzyme assay in conditioned media of transfected COS cells. In kind it is biochemical. Here is the method:
Enzymatic activity assays were performed using cloned mNC, engineered hNC (stop codon substituted to allow for translation of full protein), engineered mut-hNC (truncated), and cloned hAMCase in COS cells. The full length mNC construct was expressed and the chitinase activity of the resultant gene products was measured.
Cultured conditions were as follows: COS cells were cultured in DME media and were transfected at 90% confluency using TransIT®-LT1 transfection reagent (MIRUS). 24 hours post transfection, cell culture media was replaced with serum-free R1CD1 media. Conditioned media, containing secreted enzyme, was collected 48 hours later. Chitinase enzyme assays were performed directly from these samples, as follows.

Setting [9] is: Table 1, pH 5.0 citrate phosphate buffer.
[10] abbreviates: Table 1, pH 5.0 citrate phosphate buffer, read-out: Km.
Where [11] appears, read: text, Michaelis-Menten fit, hAMCase 1 nM or mNC 0.25 nM, read-out: Km app.

Where “and” joins values, the source holds several entries; their conditions need not be identical. Identical values can stand only once. Some results are limits rather than exact numbers.

T1 sequence (Q9BZP6 22-476 N45D/D47N/R61M/I339V/F354S/V432G): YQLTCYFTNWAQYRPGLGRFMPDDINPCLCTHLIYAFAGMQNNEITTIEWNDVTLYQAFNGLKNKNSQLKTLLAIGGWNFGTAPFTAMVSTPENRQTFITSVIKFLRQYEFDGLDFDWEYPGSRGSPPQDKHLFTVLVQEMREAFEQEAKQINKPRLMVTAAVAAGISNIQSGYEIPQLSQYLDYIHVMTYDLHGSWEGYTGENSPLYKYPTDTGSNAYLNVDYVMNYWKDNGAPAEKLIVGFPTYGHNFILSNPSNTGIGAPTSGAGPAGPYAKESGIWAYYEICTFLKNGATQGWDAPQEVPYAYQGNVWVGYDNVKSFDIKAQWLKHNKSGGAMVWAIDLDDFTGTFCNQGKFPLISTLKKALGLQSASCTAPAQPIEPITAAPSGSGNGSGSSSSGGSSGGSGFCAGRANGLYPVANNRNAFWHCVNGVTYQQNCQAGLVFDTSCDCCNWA

Turning to “hAMCase: human Acidic Mammalian Chitinase, SEQ ID NO:29”, the relative specific activity in series [1] is 0.4 units/sec/nM. In addition, the Km was 20 µM in series [2]; 42 ± 6 µM in series [5] (setting [10]); 42 µM in series [5] (text, Michaelis-Menten fit, hAMCase 1 nM or mNC 0.25 nM, listed as AMCase, read-out: Km app); ~42 µM in series [5] (setting [11]). Also, in series [3], the “activity at lower pH values” was “lower activity, but retain significant activity”. Also, the “pH of maximal activity” value in series [3] turned out to be 5.0. Moreover, the “slope of the initial rate at the various enzyme concentrations at maximal activity” value in series [3] came to 0.45. Moreover, the chitin hydrolysis result in series [4] is given as “generated soluble chitin oligomers”. Moreover, the kcat in series [5] (setting [9]) is listed as 3.0 ± .35 s − 1; in series [5] (summary text b32) it was “about 3 s^−1”; in series [5] (text b472, unit not given) it was 3.0+/−0.35. For the same molecule, in series [5], the “chitobioside-4MU substrate concentration showing substrate inhibition / apparent transglycosylation” value worked out at 150 µM.
Regarding `COC[C@H]1O[C@@H](O[C@H]2[C@@H](O)[C@@H](NC(C)=O)[C@H](OC3C(O)C4N=C(N(C)C)OC4C3CO)O[C@@H]2CO)[C@H](NC(C)=O)[C@H](O)[C@@H]1O` (some centres unmarked) [methylallosamidin], in series [6], the “inhibition of hAMCase with increasing concentrations of methylallosamidin” value was “dose-dependent inhibition”. Besides, the IC50 in series [6] (10 minutes preincubation) came to 5.5 nM; in series [7] (2 nM mNC, 10 minutes preincubation, 5 μM chitobiose-4MU), 58 nM. In addition, the “inhibition of mNC with increasing concentrations of methylallosamidin” value in series [7] (2 nM mNC, 5 μM chitobiose-4MU) is “dose-dependent inhibition”. In series [7] (mNC versus hAMCase), the “amount of inhibitor required to inhibit mNC relative to hAMCase” value amounted to 10 times.
Molecule “mNC: macaque novel chitinase cloned from cynomolgus monkey, SEQ ID NO:2” gave a relative specific activity in series [1] of 14.4 units/sec/nM. In series [8], the “enzymatic (chitinase) activity” value was “significant enzymatic activity”. Also, the “lower apparent Km for chitobiose-4MU compared to hAMCase” value in series [2] (mNC versus hAMCase) came to 10 fold. Further, the Km in series [2] is 2 µM; in series [5] (setting [10]), 6 ± 1 µM; in series [5] (setting [11]), ~6 µM and 6 µM. The “activity at lower pH values” in series [3] was “lower activity, but retain significant activity”. Moreover, in series [3], the “pH of maximal activity” value was 5.0. Besides, the “slope of the initial rate at the various enzyme concentrations at maximal activity” value in series [3] is 13.1. The chitin hydrolysis entry in series [4] was “generated soluble chitin oligomers”. Besides, the kcat in series [5] (setting [9]) was 31.8 ± 3.2 s − 1; in series [5] (summary text b32), “about 32 s^−1”; in series [5] (text b472, unit not given) it was 31.8+/−3.2. Further, the “chitobioside-4MU substrate concentration showing substrate inhibition / apparent transglycosylation” value in series [5] was ≥ 37 µM.

What is called Km is the substrate concentration at which the rate is half of its maximum. As usually defined, the IC50 is the concentration at which inhibition is half-maximal. Higher therefore signals weaker potency in that assay.
